Measured values as given in paper PMC5327734 (Nature communications, 2015).

Molecular target: T1, pre-activated, recombinant, full length, human MST1 protein kinase (human, UniProt Q13043 1-487)
T1 sequence (looked up): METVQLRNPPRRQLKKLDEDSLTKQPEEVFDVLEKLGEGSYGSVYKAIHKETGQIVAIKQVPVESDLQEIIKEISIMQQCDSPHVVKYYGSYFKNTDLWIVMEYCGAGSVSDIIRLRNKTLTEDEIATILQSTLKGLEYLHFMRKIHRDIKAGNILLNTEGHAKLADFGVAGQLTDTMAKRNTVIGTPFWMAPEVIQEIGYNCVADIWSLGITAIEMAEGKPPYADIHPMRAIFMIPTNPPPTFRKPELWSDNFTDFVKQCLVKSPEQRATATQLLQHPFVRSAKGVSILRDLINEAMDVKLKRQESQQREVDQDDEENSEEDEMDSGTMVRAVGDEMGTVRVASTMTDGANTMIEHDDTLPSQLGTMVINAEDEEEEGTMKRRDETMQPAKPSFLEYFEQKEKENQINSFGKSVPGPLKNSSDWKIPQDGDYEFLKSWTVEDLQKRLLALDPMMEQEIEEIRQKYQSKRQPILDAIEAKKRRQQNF
Test: pull-down

binding result: binds
B1: GST-YAP1-PR/TEAD (residues 2-150) (domain or fragment, UniProt P46937 2-150, looked up)
chain: DPGQQPPPQPAPQGQGQPPSQPPQGQGPPSGPGQPAPAATQAAPQAPPAGHQIVHVRGDSETDLEALFNAVMNPKTANVPQTVPMRLRKLPDSFFKPPEPKSHSRQASTDAGTAGALTPQHVRAHSSPASLQLGAVSPGTLTPTGVVSG
